{
  "source": "patent US11428689B2",
  "about": "“Methods and uses for remotely triggered protease activity measurements” (Massachusetts Institute of Technology, priority 2016, dated 2022)",
  "key": {"MMP13": {"target": "T1, MMP13 (Homo sapiens, UniProt P45452)", "T1 construct": "purchased Enzo Life Sciences", "test": "In vitro recombinant protease assay (fluorescence dequenching of NP-bound substrate)", "type": "biochemical", "conditions": "for cleavage of substrate by MMP13: unmodified substrate on particle", "procedure": "(§1) C1-NP complexes sensitive to MMP cleavage were mixed with 1% (wt/vol) BSA (Sigma) and incubated with recombinant proteases (MMPs and ADAMs: Enzo Life Sciences; Clotting proteases: Haematologic Technologies) in a final volume of 100 μL in enzyme-specific buffers (MMP buffer: 50 mM Tris, 150 mM NaCl, 5 mM CaCl2, 1 μM ZnCl2, pH 7.5; Clotting proteases: PBS) in a 384-well plate for time-lapse fluorimetry to measure dequenching from homoquenched peptides at 37° C. (SpectroMax Gemini EM Microplate Reader). For the metalloproteinase, enzymes were diluted 1:10 in enzyme specific buffer, and for clotting proteases, enzymes were diluted 1:100. Cleavage heatmap was generated using GENE-E (Broad Institute). Michaelis-Menten constants were determined by assessing initial cleavage velocities at different substrate concentrations. The MMP inhibitor Marimatstat (Tocris) was added to the mixture at 100 μM final concentration. To identify the cleavage position by MMP9, C1-NPs were incubated with MMP9 overnight, and the N-terminal cleavage fragment was isolated and analyzed by MALDI. The sequence corresponding to the dominant peak was identified, and the final amino acid was in that sequence represents the P1 position (toward the N-terminal end from scissile bond). For protease resistance assays, various DMNPE: peptide ratios were reacted overnight and purified prior to being added to proteases.\n(§2) Light activation of peptides for biochemical studies was performed using a CL-1000 UV Cross-linker (UVP, 8 mW/cm^2). Power density was measured by an OAI 306 UV power meter at 365 nm. Typical exposure time for these studies was 10-30 min. For activation in cell and animal studies, Lumen Dynamics UV system with 365 nm fiber light guide was used (OmniCure 1000, 200 mW/cm^2). For in vivo activation at the tumor site, mice were anesthetized, and the light was guided through an optical cable and placed approximately 3 cm from the flank tumor. Each flank tumor was exposed for 30 s."}, "MMP1": {"target": "T2, MMP1 (Homo sapiens, UniProt P03956)", "T2 construct": "purchased Enzo Life Sciences", "T2 sequence (P03956 100-469)": "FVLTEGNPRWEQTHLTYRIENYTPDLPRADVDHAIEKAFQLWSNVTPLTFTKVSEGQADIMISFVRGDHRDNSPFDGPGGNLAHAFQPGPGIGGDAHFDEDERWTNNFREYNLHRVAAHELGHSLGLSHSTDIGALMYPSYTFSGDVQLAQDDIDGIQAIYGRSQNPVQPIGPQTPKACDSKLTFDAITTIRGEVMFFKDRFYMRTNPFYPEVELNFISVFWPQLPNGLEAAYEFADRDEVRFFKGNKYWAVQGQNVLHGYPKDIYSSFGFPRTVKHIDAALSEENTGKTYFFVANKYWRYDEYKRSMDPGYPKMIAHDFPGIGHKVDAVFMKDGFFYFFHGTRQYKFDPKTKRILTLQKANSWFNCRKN", "test": "In vitro recombinant protease assay (fluorescence dequenching of NP-bound substrate)", "type": "biochemical", "conditions": "unmodified substrate on particle", "procedure": "as §1"}, "MMP14": {"target": "T3, MMP14 (Homo sapiens, UniProt P50281)", "T3 construct": "purchased Enzo Life Sciences", "test": "In vitro recombinant protease assay (fluorescence dequenching of NP-bound substrate)", "type": "biochemical", "conditions": "unmodified substrate on particle", "procedure": "as §1"}, "MMP7": {"target": "T4, MMP7 (Homo sapiens, UniProt P09237)", "T4 construct": "purchased Enzo Life Sciences", "T4 sequence (P09237 95-267)": "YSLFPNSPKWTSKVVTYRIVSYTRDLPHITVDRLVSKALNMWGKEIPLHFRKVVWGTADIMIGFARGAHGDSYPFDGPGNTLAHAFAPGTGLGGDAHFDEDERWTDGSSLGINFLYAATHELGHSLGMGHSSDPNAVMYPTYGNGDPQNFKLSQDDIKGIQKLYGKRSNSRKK", "test": "In vitro recombinant protease assay (fluorescence dequenching of NP-bound substrate)", "type": "biochemical", "conditions": "unmodified substrate on particle", "procedure": "as §1"}, "[1]": {"test": "NP stability in physiological solution (lack of fluorescent dequenching)", "type": "in vitro ADME", "conditions": "physiological solution (human control serum, FIG. 7C), 37° C., 24 h", "procedure": "Next, whether STREAMs could provide both spatial and temporal control of MMP activity measurements was tested. First, whether the veiled NPs would block protease cleavage until activation by light was evaluated. Due to homoquenching of the fluorescent substrates once assembled on the NPs, protease activity can be monitored by measuring increases in sample fluorescence that occurs from peptide proteolysis (FIG. 7B). NPs were stable in physiological solution at 37° C. over 24 h, as confirmed by a lack of fluorescent dequenching (FIG. 7C)."}, "LS174T cells [2]": {"system": "LS174T cells", "test": "Secreted protease activity assay, conditioned media", "type": "cell-based, human", "conditions": "conditioned media from LS174T cells", "procedure": "(§3) LS174T and CCD-18Co (ATCC CRL-1459) cells were cultured in Eagle's Minimal Essential Medium (ATCC) supplemented with 10% FBS (Gibco) and 1% penicillin-streptomycin (CellGro). Cells were passaged when confluence reached 80%. To isolate secreted proteases, after cells were plated, cells were washed and replaced in serum-free media. Conditioned media was collected 24 h later and exposed to C1-NPs to measure fluorescence dequenching."}, "CCD-18Co cell line": {"system": "CCD-18Co cell line", "test": "Secreted protease activity assay, conditioned media", "type": "cell-based", "conditions": "conditioned media from CCD-18Co cells", "procedure": "as §3"}, "LS174T cells [3]": {"system": "LS174T cells", "test": "3D collagen cancer tissue model, peptide fluorescence in supernatant", "type": "cell-based, human", "procedure": "Next, the activation of the nanosensors in a 3D ECM environment was probed. Forty LS174T cells were embedded in collagen I together with veiled or unmodified nanosensors (FIG. 4A). The constructs were monitored for protease activity by collecting the supernatant and measuring liberated peptide fragments under different conditions: L-amino acid peptide substrates were compared to D-amino acid counterparts to measure nonspecific background, and the role of DMPNE veiling was measured.\nIn order to correlate regions of light-activation with protease activity measurements, light-activated rhodamine dye was included to visualize regions exposed to light (FIG. 12A). To explore the ability to monitor protease activity with spatial and temporal control, only the left half of the gels was illuminated.\nLS174T cells were encapsulated in 2.5 mg/mL collagen hydrogels (rat tail collagen type I, Corning). Imaging was done on Nikon Eclipse Ti Inverted Microscopes and Zeiss Stereoscope Discovery v20. When protease activity was measured, surrounding media was serum-free."}, "MMP9": {"target": "MMP9 (Homo sapiens, UniProt P14780)", "sequence (P14780 94-707, species assumed)": "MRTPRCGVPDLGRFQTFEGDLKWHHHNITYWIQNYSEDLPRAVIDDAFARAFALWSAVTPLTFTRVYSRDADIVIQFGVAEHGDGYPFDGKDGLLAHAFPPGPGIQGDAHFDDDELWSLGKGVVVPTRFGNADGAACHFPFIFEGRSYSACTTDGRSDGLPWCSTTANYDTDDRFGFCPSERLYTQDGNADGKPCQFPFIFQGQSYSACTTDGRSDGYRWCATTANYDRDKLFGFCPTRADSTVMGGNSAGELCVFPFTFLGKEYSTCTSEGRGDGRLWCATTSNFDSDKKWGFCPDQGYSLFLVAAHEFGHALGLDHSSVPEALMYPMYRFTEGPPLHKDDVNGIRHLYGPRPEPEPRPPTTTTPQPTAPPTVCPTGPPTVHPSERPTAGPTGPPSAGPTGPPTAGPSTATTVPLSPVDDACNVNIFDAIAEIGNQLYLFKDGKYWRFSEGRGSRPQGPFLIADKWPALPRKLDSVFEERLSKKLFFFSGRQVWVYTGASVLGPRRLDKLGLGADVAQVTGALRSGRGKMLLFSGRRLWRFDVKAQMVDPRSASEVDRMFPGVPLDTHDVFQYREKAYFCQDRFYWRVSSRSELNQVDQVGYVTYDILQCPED", "test": "In vitro recombinant protease assay (fluorescence dequenching of NP-bound substrate)", "type": "biochemical", "design": "purchased Enzo Life Sciences", "procedure": "as §1, §2"}},
  "note": "Where no end group is shown, it is not given here. [ ]: non-standard residue; d: D form. FAM = fluorescein",
  "data": [
    {"substance": "C1-NPs: Iron oxide NPs functionalized with fluorescein-conjugated peptide substrate C1 at surface valency >20; in vitro protease sensor ({FAM}-[dS][dK]PLGLEEAGC(iron oxide nanoparticle); not fully specified; printed as FAM-sk-PLGLEEA-GC; also: C-terminal Cys coupled to iron oxide nanoparticle)", "values": [
      {"measurement": "catalytic efficiency", "setting": "MMP13; MMP13, Michaelis-Menten fit", "value": "> 10^4 M^−1 s^−1"},
      {"measurement": "cleavage of substrate by MMP13", "setting": "MMP13", "value": "most efficient"},
      {"measurement": "cleavage of substrate by MMP13", "setting": "MMP13; listed as C1-NP", "value": "significantly cleaved"},
      {"measurement": "cleavage of substrate by MMP1", "setting": "MMP1", "value": "significantly cleaved"},
      {"measurement": "cleavage of substrate by MMP14", "setting": "MMP14", "value": "able to cleave the substrate"},
      {"measurement": "cleavage of substrate by MMP7", "setting": "MMP7", "value": "significantly cleaved"},
      {"measurement": "stability (lack of fluorescent dequenching)", "setting": "[1]", "value": "stable"},
      {"measurement": "cleavage by cell-secreted proteases", "setting": "LS174T cells [2]", "value": "peptide cleavage and a dose-dependent increase in fluorescence"},
      {"measurement": "cleavage by cell-secreted proteases", "setting": "CCD-18Co cell line", "value": "significantly lower compared to LS174T cells"},
      {"measurement": "liberated peptide fluorescence in supernatant", "setting": "LS174T cells [3]; first day, no light", "value": "significantly more fluorescent peptides than those with D-amino acid NPs"},
      {"measurement": "peptide fluorescence in supernatant after light exposure", "setting": "LS174T cells [3]; left half of gels illuminated, 24 h, 30 s at 200 mW/cm^2", "value": "did not exhibit significant changes in peptide fluorescence"},
      {"measurement": "catalytic efficiency", "setting": "MMP9; MMP9, Michaelis-Menten fit", "value": "> 10^3 M^−1 s^−1"},
      {"measurement": "cleavage of substrate by MMP9", "setting": "MMP9; unmodified substrate on particle", "value": "significantly cleaved"}
    ]}
  ]
}
